Data taken from publication PMC7457537, “Influence of the amino-terminal sequence on the structure and function of HIV integrase” (Retrovirology, 2020).

Tests used:
Conditions in all cases: both partners purified
[1] = biological target: T1, HIV-1 integrase with native N-terminal phenylalanine (IN 1F), full-length, wild type (HIV-1 (NL4-3)); assay: AUC; sedimentation equilibrium, 4 °C, 20 mM HEPES-NaOH pH 7.5, 1 M NaCl, 7 mM CHAPS, 10 µM ZnOAc2, 10 µM β-mercaptoethanol; global fit at 16, 20, 24 krpm (SEDPHAT); dimer to monomers
T1 chain: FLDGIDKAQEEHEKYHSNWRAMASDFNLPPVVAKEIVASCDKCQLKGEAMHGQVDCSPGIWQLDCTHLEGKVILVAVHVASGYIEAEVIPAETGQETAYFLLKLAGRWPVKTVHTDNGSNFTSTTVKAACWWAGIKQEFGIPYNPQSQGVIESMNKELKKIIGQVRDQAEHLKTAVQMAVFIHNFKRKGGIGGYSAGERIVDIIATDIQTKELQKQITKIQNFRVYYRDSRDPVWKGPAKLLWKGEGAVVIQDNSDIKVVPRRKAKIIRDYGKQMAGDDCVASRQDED

[2] = biological target: T1, HIV-1 integrase with native N-terminal …; assay: AUC; sedimentation equilibrium, 4 °C, same data and buffer as the monomer-dimer fit; attempted fit of a dimer-tetramer equilibrium: tetramer to dimers
[3] = biological target: T1, HIV-1 integrase with native N-terminal …; assay: SEC-MALS; Superdex 200 10/300, 25 °C, 20 mM HEPES-NaOH pH 7.5, 500 mM-1 M NaCl, 7 mM CHAPS, 10 µM ZnOAc2, 10 µM β-mercaptoethanol; eluted concentrations ~8-10 µM (IN 1F, IN MF); self-association

B1: HIV-1 integrase with native N-terminal phenylalanine (IN 1F), full-length, wild type (enzyme)
chain: FLDGIDKAQEEHEKYHSNWRAMASDFNLPPVVAKEIVASCDKCQLKGEAMHGQVDCSPGIWQLDCTHLEGKVILVAVHVASGYIEAEVIPAETGQETAYFLLKLAGRWPVKTVHTDNGSNFTSTTVKAACWWAGIKQEFGIPYNPQSQGVIESMNKELKKIIGQVRDQAEHLKTAVQMAVFIHNFKRKGGIGGYSAGERIVDIIATDIQTKELQKQITKIQNFRVYYRDSRDPVWKGPAKLLWKGEGAVVIQDNSDIKVVPRRKAKIIRDYGKQMAGDDCVASRQDED
modifications: Zn2+ bound in the NTD (H12, H16, C40, C43); native N-terminal Phe1; monomer-dimer equilibrium. Limits: the paper gives F1 as the start and full length; the integrase chain follows RT (ends at 1147) …
Kd [1]: 59.8 µM
Kd [2]: > 1000 µM
stoichiometry N [3]: 2
